From publication PMC9253517 (The Journal of Experimental Medicine, 2022)
Positions count from the first letter of the chain named.

B1: JN141 (antibody, V domains shown)
VH: EVQLVESGGGLVQPGGSLRLSCAASGFTFSSYSMNWVRQAPGKGLEWVSYISSSSSTISYADSVKGRFTISRDNAKNSLYLQMNSLRAEDTAVYYCASGKGVGFDYWGQGTLVTVSS
VL: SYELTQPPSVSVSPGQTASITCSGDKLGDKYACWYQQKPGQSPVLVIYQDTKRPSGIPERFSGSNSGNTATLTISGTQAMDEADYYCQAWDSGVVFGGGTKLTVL
B2: JN142 (antibody, V domains shown)
VH: QVQLVQSGAEVKKPGASVKVSCKASGYTFTSYDINWVRQATGQGLEWMGWMNPNSGNTGYAQKFQGRVTMTRNTSISTAYMELSSLRSEDTAVYYCARVLAPYDYVWGSYRYDNWFDPWGQGTLVTVSS
VL: QSVLTQPPSVSAAPGQKVTISCSGSSSNIGNNYVSWYQQLPGTAPKLLIYDNNKRPSGIPDRFSGSKSGTSATLGITGLQTGDEADYYCGTWDSSLSALFGGGTKLTVL
B3: JN136 (antibody, V domains shown)
VH: QVQLVESGGGVVQPGRSLRLSCAASGFTFSSYAMHWVRQAPGKGLEWVAVISYDGSNKYYADSVKGRFTISRDNSKNTLYLQMNSLRAEDTAVYYCARELAWRGITIFGVVIYNPFDYWGQGTLVTVSS
VL: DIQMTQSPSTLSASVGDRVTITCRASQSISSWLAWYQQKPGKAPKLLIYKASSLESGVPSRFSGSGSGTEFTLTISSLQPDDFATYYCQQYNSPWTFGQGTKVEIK
B4: JN130 (antibody, V domains shown)
VH: QVQLQESGPGLVKPSQTLSLTCTVSGGSISSGDYYWSWIRQPPGKGLEWIGYIYYSGSTYYNPSLKSRVTISVDTSKNQFSLKLSSVTAADTAVYYCARVLRFYDNIWENYRLPRYFDYWGQGTLVTVSS
VL: QSALTQPRSVSGSPGQSVSISCTGTSSDVGGSEYVSWYQQHPGKAPKLMIYDVNQRPSGVPARFSGSKSGNTASLTISGLQAEDEADYYCCSYAGTYNFEVFGGGTKLSVL
B5: JN144 (antibody, V domains shown)
VH: QVQLVQSGPEVKKPGASVKVSCKASDYTFTSYDIIWVRQAPGQGLEWMGWISTHNGNTNYAQELQGRVTMTRETSTSTAHMELRSLRSDDTAVYYCARGPNRYLRLLEWSIPADWFFDLWGRGTLVTVSS
VL: EIVLTQSPGTLSLSPGDRATLSCRASQSVPSTSIAWYQQKPGQAPRLLFHGAASRAIGIPDRFSGSGSGTDFTLTISRLEPEDSAVYYCQHCGDSPPLLTFGPGTKVDIK
B6: JN145 (antibody, V domains shown)
VH: QVQLVQSGAEVKKPGASVKVSCKASGYTFTSYYMHWVRQAPGQGLEWMGIINPSGGSTSYAQKFQGRVTMTRDTSTSTVYMELSSLRSEDTAVYYCARGESDDYVWGSYRYTNNWFDPWGQGTLVTVSS
VL: not shown
B7: JN112 (antibody, V domains shown)
VH: QVQLQESGPGLVKPSQTLSLTCTVSGGSISSGDYYWSWIRQPPGKGLEWIGYIYYSGSTYYNPSLKSRVTISVDTSKNQFSLKLSSVTAADTAVYYCAREGTIFGEPFDYWGQGTLVT
VL: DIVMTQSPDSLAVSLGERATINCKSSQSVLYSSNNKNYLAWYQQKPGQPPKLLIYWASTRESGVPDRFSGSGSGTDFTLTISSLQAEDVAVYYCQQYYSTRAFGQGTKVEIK
B8: JN038 (antibody, V domains shown)
VH: QVQLVQSGAEVKKPGSSVKVSCKASGGRFSSTAISWVRQAPGQGLEWMGGIIPIFGAPTDVQKFQGRVTITADQSTSTAYMELSNLRSEDTAVYYCATLGNYDFLTGNTFSYFDYWGQGTLVTVSS
VL: DIQLTQSPSSLSASVGDRVTITCRAGQSIGNYLNWYQQKPGKAPKVLIYGASSLQSGVPSRFSGSGSGTDFTLTISSLQPEDFASYYCQQSFTTPLTFGGGTKVEIK
B9: JN139 (antibody, V domains shown)
VH: QVQLQESGPGLVKPSETLSLTCTVSGGSISNYFWSWIRQPPGQGLEWIGYIFYNGDTTYNPSLKSRVTISVDTSKNQFSLKLSSVTAADTAVYYCARDYYDSRGVFHGGFDSWGQGILVTVSS
VL: DIVMTQSPDSLAVSLGERATINCKSSQSVLYSSNSRNYLAWYQQRPGQPPKRLIYWASTRESGVPDRFSGSGSGTDFTLTISSLQAEDVAVYYCQQYYTNPPWTFGQGTKVEIK
B10: JN034 (antibody, V domains shown)
VH: QVQLQESGPGLVEPSQTLSLTCAVSGGSISGGDYYWSWIRQPPGKGLEWIGYIYYSGSTFYNPSLYSRLTISVDTSKNQFSLKLSSVTAADTAVYYCAREGPAIFKIPNGFDIWGQGTMVTVSS
VL: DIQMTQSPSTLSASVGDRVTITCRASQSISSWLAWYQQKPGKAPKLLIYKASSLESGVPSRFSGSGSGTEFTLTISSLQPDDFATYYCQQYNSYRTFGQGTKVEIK
B11: JN140 (antibody, V domains shown)
VH: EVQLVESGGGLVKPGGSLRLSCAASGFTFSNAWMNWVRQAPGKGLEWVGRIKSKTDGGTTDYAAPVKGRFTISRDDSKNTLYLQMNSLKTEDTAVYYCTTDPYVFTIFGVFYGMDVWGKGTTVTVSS
VL: QSALTQPASVSGSPGQSITISCTGTSSDVGSYNLVSWYQQHPGKAPKLMIYEVSKRPSGVSNRFSGSKSGNTASLTISGLQAEDEADYYCCSYAGSSTHHWVFGGGTKLTVL
B12: JN131 (antibody, V domains shown)
VH: EVQLVESGGGLVKPGGSLRLSCAASGFTFNSYSMNWVRQAPGKGLEWVSSISSSSNFIYYADSVKGRFTISRDNAKNSLYLQMNSLRAEDTAMYYCARDPGYRSSWFEVYYFDYWGPGTLVTVSS
VL: B11 VL with M49V, S54T, A94G, S97T, H99S, H100P, W101Y, G105T, L109V
B13: JN133 (antibody, V domains shown)
VH: QLQLQESGPGLVKPSETLSLTCTVSGGSISSGSNYWGWIRQPPGKGLEWIGTIYYSGATYFSPSLKNRITISVDTSKNQFSLRLSSVIAADTAVYYCARLPFQNYYFYGMDVWGKGTTVTVSS
VL: SYELTQPPSVSVSPGQTARITCSGDVLPKQYAYWYQQKPGQAPVLVISKDSERPSGIPERFSGSSSGTTVTLTISGVQGEDEADYHCQSADSSGTWVFGGGTKLTVL
B14: JN138 (antibody, V domains shown)
VH: QVQLVQSGTEVKKPGASVKVSCKASGYTFTSYYMHWVRQAPGQGLEWMGIINPSGGSTSYAQKFQGRVTMTRDTSTSTVYMELSSLRSEDTAVYYCARAELGSGSYPYYGMDVWGKGTTVTVSS
VL: SYELTQPPSVSVSPGQTARITCSGDALPKQYAYWYQQKPGQAPVLVIYKDSERPSGIPERFSGSSSGTTVTFTISGVQAEDEADYYCQSADSSGSYVVFGGGTKLTVL
B15: JN108 (antibody, V domains shown)
VH: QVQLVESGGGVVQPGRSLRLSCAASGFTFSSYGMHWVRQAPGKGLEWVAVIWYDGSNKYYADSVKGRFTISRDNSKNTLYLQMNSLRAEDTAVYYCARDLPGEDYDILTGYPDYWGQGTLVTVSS
VL: QSALTQPASVSGSLGQSITISCTGTSSDVGSYNLVSWYQQHPGKVPKLMIYEANKRASGVSDRFSGSKTDNTASLTISGLQAEDEADYYCCSYAGSRTHVIFGGGTKLTV
B16: JN111 (antibody, V domains shown)
VH: QVQLQESGPGLVRPSETLSLTCTVSGASITSYFWTWIRQAPGKGLEWIGYIYYSGSTNYNPSLKSRGTISVDTSKNQFSLKLSSVTAADTAVYYCARGMSDVVIVPAALSFGYDDAYYYYYYMDVWGKGTTVTVSS
VL: B15 VL
B17: JN106 (antibody, V domains shown)
VH: EVQLVESGGGLVQPGGSLRLSCAASGFTFSENWMSWVRQAPGKGLEWVGNIKQDASEKYFVDSVKGRFTISRDNAKNSLYLQMDSLRAEDTAVYFCARWGYSNSYYYIDCWGQGTLVTVSS
VL: QAVVTQEPSFSVSPGGTVTFTCGLTSGSVSASNHPSWYQQTPGQAPRTLMYGTNIRSSGVPDRFSGSILGNKAALTITGAQADDECDYYCVLYIGDGVWVFGGGTKLTVL
B18: JN135 (antibody, V domains shown)
VH: QLQLQESGPGLVKPSETLSLTCTVSGGSISSSSYYWGWIRQPPGKGLEWIGSIYYSGSTYYNPSLKSRVTISVDTSKNQFSLKLSSVTAADTAVYYCARLIAATWTFGGVIFNWFDPWGQGTLVTVSS
VL: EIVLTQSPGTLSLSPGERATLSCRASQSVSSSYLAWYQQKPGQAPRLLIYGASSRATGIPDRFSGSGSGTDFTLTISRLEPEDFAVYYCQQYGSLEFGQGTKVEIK

Legend:
[1] = target: SARS-CoV-2 Wuhan-Hu-1 NTD (SARS-CoV-2, UniProt P0DTC2 14-307); assay: cell-based or functional assay
[2] = target: SARS-CoV-2 Wuhan-Hu-1 NTD (SARS-CoV-2, UniProt P0DTC2); assay: cell-based or functional assay

Binder	neutralisation IC50, WT (293TAce2) [1] [µg/mL]	neutralisation IC50, WT (293TAce2) [2] [µg/mL]
B1	> 1	–
B2	> 1	–
B3	> 1	–
B4	> 1	–
B5	> 1	–
B6	0.688	–
B7	–	> 1
B8	> 1	–
B9	> 1	–
B10	> 1	–
B11	> 1	–
B12	> 1	–
B13	> 1	–
B14	0.401	–
B15	–	> 1
B16	–	> 1
B17	> 1	–
B18	0.947	–
